One molecule from paper PMC5845987 can be followed below.

In assay [1] the target is CCAAT/enhancer binding protein β (C/EBPβ) (UniProt P17676).
Assay [2] shares this target. This is another data set of the same source.

Some results are limits rather than exact numbers.

Sequence of UniProt P17676 (P17676 whole entry): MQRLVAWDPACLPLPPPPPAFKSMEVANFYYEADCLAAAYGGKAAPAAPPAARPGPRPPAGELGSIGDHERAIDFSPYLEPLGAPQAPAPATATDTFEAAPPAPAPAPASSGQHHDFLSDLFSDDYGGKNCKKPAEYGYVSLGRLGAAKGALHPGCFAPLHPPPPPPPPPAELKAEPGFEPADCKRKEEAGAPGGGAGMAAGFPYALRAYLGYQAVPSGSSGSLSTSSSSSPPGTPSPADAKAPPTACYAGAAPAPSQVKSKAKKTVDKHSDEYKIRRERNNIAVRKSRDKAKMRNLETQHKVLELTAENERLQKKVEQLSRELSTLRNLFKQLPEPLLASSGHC

B1: HPV8 E2 protein (human papillomavirus type 8 transcription factor E2) (natural protein)
chain: MENLSERFNVLQDQLMNIYEAAEQTLEAQIAHWLLLRKEAVLLYFARQKGITRIGYQPVPPLAVSEAKAKQAIGIMLQLQSLQKSEFADEPWTLVDTSIETYKNAPENHFKKGATPVEVIYDKQPDNANVYTMWKHIYYTDADDKWHKTTSGVNQTGIYYMQGSFRHYYVVFADDARRYSATGEWEVKINKDTVFAPVTSSTPPGSPPGQADTDTAAKTPTTSADSTSRQQRSPAKQPQQTETKGRRYGRRPSSRTRPQKEQRRSRSRHRTRSRSRSLSRVRAVGSTTVSRSRSSSLTKAVRPRSRSRSRGRATATSRRRAGRGSPRRRRSTSRSPSTNTFKRSQRGGGRRGRGRGSRGRRERSSSTSPTPTKRSRGESSRLRGVSPSEVGRSVQSVSAKHTGRLGRLLDEAIDPPVILVRGEANTLKCFRNRARVRYRGLFKYFSTTWSWVAGDSTERLGRSRMLILFTSAGQRKDFDETVKYPKGVDTSYGNLDSL
For the molecule B1, the murine S100A8 promoter luciferase reporter activity in RTS3b cells co-transfected with 0.005 μg C/EBPβ and 0.005, 0.04 or 0.2 μg HPV8 E2 expression vector (control set at 1) in assay [1] is 7 fold. Also, in assay [2], the endogenous S100A8 mRNA (qRT-PCR) in RTS3b cells co-transfected with HPV8 E2 and C/EBPβ: enhancement of C/EBPβ-mediated induction is over 25 fold; the endogenous S100A8 protein level (Western blot quantification) in RTS3b cells co-transfected with HPV8 E2 and C/EBPβ is 90 fold; the endogenous S100A9 mRNA (qRT-PCR) in RTS3b cells co-transfected with HPV8 E2 and C/EBPβ: enhancement of C/EBPβ-mediated induction worked out at 6 fold; the endogenous S100A9 protein level (Western blot quantification) in RTS3b cells co-transfected with HPV8 E2 and C/EBPβ came to 31 fold.
